In paper PMC9482650, “Quantitative fragmentomics allow affinity mapping of interactomes” (Nature Communications, 2022):

Legend:
Assay in all cases: holdup assay
Design in all cases: key: below the threshold = too weak to quantify, mostly under pKd 3.1 to 4
Details in all cases: plain residues with an end cap or a label only (N-terminal biotin on a linker: ado-ado)
APBA2_2, Q99767 = target: T1, APBA2_2, Q99767
T1 sequence (Q99767 654-744, limits assumed, looked up): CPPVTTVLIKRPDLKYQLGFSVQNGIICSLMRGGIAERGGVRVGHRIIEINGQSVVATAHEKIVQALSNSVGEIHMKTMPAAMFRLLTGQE

CARD11, Q9BXL7 = target: T2, CARD11, Q9BXL7
T2 sequence (Q9BXL7 662-765, limits assumed, looked up): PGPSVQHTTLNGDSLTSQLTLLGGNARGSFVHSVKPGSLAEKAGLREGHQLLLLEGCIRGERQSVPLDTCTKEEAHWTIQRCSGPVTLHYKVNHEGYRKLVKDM

CASK, O14936 = target: CASK, O14936
DFNB31_2, Q9P202 = target: T3, DFNB31_2, Q9P202
T3 sequence (Q9P202 274-371, limits assumed, looked up): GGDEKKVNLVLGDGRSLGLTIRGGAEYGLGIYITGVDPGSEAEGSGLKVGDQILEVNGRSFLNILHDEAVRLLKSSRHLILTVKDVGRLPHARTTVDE

DLG3_2, Q92796 = target: T4, DLG3_2, Q92796
T4 sequence (Q92796 221-321, limits assumed, looked up): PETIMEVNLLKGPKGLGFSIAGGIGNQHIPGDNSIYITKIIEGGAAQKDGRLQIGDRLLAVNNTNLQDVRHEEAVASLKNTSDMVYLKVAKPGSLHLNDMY

DLG3_3, Q92796 = target: T5, DLG3_3, Q92796
T5 sequence (Q92796 374-475, limits assumed, looked up): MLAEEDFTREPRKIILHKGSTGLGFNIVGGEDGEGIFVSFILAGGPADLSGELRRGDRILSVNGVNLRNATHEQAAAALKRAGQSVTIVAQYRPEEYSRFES

DLG4_1, P78352 = target: DLG4_1, P78352
FRMPD2_3, Q68DX3 = target: FRMPD2_3, Q68DX3
GRIP2_3, Q9C0E4 = target: GRIP2_3, Q9C0E4
GRIP2_4, Q9C0E4 = target: GRIP2_4, Q9C0E4
GRIP2_5, Q9C0E4 = target: GRIP2_5, Q9C0E4
GRIP2_6, Q9C0E4 = target: GRIP2_6, Q9C0E4
IL16_3, Q14005 = target: IL16_3, Q14005
Inadl_1, Q8NI35 = target: Inadl_1, Q8NI35
Inadl_8, Q8NI35 = target: Inadl_8, Q8NI35
LDB3, O75112 = target: LDB3, O75112
LIMK2, P53671 = target: LIMK2, P53671
LNX2_2, Q8N448 = target: T6, LNX2_2, Q8N448
T6 sequence (Q8N448 334-432, limits assumed, looked up): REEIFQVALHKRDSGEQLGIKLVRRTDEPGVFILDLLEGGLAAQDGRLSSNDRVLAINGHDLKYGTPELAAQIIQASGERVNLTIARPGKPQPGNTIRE

MAGI2_4, Q86UL8 = target: MAGI2_4, Q86UL8
MAGI2_6, Q86UL8 = target: MAGI2_6, Q86UL8
MAGI3_2, Q5TCQ9 = target: MAGI3_2, Q5TCQ9
MPDZ_12, O75970 = target: T7, MPDZ_12, O75970
T7 sequence (O75970 1857-1958, limits assumed, looked up): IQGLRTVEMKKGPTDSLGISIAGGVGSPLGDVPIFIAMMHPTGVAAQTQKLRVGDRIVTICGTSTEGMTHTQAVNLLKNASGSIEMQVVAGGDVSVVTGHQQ

MPP2, Q14168 = target: T8, MPP2, Q14168
T8 sequence (Q14168 180-250, limits assumed, looked up): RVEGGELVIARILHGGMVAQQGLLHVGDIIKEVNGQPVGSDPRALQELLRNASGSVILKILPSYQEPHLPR

PDZD7_3, Q9H5P4 = target: T9, PDZD7_3, Q9H5P4
T9 sequence (Q9H5P4 857-944, limits assumed, looked up): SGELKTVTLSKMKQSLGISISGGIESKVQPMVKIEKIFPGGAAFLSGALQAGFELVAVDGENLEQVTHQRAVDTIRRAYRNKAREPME

PTPN3, P26045 = target: PTPN3, P26045
SHANK1, Q9Y566 = target: T10, SHANK1, Q9Y566
T10 sequence (Q9Y566 658-767, limits assumed, looked up): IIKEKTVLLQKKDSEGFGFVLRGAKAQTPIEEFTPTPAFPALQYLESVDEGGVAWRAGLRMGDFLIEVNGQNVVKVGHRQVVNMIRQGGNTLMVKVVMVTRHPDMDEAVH

TJP1_3, Q07157 = target: TJP1_3, Q07157
TJP3_3, O95049 = target: T11, TJP3_3, O95049
T11 sequence (O95049 375-456, limits assumed, looked up): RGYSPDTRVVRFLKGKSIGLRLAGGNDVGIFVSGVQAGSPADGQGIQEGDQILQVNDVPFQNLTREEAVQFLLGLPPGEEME

GRIP2_4, Q9C0E4, sequence (Q9C0E4 446-548): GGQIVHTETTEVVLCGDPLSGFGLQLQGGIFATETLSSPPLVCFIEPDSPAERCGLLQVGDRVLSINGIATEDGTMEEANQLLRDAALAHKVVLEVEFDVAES
PTPN3, P26045, sequence (P26045 505-587): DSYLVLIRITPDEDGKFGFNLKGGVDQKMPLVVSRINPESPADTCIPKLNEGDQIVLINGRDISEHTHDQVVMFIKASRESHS
FRMPD2_3, Q68DX3, sequence (Q68DX3 1073-1166): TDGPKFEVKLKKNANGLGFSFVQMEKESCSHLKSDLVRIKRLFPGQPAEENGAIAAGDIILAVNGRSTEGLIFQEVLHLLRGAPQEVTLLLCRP
MAGI3_2, Q5TCQ9, sequence (Q5TCQ9 398-503): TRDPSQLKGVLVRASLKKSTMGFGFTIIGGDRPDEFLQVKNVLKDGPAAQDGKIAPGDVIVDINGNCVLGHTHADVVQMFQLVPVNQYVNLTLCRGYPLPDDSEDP
LIMK2, P53671, sequence (P53671 143-248): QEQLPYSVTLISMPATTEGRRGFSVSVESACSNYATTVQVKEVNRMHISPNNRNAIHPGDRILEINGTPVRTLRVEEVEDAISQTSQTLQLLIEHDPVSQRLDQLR
LDB3, O75112, sequence (O75112 1-94): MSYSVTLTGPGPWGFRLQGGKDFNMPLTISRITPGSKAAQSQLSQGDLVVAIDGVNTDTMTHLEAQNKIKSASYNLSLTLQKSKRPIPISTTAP
CASK, O14936, sequence (O14936 487-570): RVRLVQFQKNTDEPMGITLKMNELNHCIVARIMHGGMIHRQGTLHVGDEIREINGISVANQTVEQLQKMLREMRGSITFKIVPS
MAGI2_4, Q86UL8, sequence (Q86UL8 772-865): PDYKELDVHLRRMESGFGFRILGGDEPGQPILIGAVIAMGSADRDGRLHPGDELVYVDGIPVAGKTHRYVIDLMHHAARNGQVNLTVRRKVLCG
TJP1_3, Q07157, sequence (Q07157 416-512): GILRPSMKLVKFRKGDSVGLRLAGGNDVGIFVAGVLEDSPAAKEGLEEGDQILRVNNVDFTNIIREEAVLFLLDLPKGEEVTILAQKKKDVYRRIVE
GRIP2_3, Q9C0E4, sequence (Q9C0E4 238-339): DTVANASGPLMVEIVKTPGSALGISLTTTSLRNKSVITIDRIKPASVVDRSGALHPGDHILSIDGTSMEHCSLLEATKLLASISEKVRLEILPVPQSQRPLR
GRIP2_5, Q9C0E4, sequence (Q9C0E4 544-642): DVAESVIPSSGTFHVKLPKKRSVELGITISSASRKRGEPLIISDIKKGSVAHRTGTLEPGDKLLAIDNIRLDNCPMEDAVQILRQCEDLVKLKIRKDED
MAGI2_6, Q86UL8, sequence (Q86UL8 1141-1229): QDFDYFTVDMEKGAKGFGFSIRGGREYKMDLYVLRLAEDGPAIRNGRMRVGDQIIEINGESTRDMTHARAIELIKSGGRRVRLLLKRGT
DLG4_1, P78352, sequence (P78352 62-152): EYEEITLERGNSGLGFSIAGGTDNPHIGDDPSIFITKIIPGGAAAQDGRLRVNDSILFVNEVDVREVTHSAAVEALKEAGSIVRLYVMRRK
IL16_3, Q14005, sequence (Q14005 1107-1207): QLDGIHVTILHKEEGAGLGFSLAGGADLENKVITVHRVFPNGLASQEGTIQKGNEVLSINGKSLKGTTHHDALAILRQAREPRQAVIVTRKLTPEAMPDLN
Inadl_1, Q8NI35, sequence (Q8NI35 113-229): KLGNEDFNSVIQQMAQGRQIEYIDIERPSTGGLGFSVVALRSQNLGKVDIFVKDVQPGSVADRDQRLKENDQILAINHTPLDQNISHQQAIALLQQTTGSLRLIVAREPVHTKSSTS
Inadl_8, Q8NI35, sequence (Q8NI35 1425-1530): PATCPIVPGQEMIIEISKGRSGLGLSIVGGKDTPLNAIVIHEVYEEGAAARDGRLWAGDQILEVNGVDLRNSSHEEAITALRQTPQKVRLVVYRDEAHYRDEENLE
GRIP2_6, Q9C0E4, sequence (Q9C0E4 648-740): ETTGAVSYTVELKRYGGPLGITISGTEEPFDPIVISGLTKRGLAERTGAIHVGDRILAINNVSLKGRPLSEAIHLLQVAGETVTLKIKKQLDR

| pKd (APBA2_2, Q99767) | pKd (CARD11, Q9BXL7) | pKd (CASK, O14936) | pKd (DFNB31_2, Q9P202) | pKd (DLG3_2, Q92796) | pKd (DLG3_3, Q92796) | pKd (DLG4_1, P78352) | pKd (FRMPD2_3, Q68DX3) | pKd (GRIP2_3, Q9C0E4) | pKd (GRIP2_4, Q9C0E4) | pKd (GRIP2_5, Q9C0E4) | pKd (GRIP2_6, Q9C0E4) | pKd (IL16_3, Q14005) | pKd (Inadl_1, Q8NI35) | pKd (Inadl_8, Q8NI35) | pKd (LDB3, O75112) | pKd (LIMK2, P53671) | pKd (LNX2_2, Q8N448) | pKd (MAGI2_4, Q86UL8) | pKd (MAGI2_6, Q86UL8) | also measured | Binder |
| --- | --- | --- | --- | --- | --- | --- | --- | --- | --- | --- | --- | --- | --- | --- | --- | --- | --- | --- | --- | --- | --- |
| below the threshold | below the threshold | below the threshold | below the threshold | 4.25 | below the threshold | below the threshold | below the threshold | below the threshold | below the threshold | below the threshold | below the threshold | below the threshold | below the threshold | below the threshold | 3.65 | below the threshold | below the threshold | 3.52 | 4.1 | pKd (MAGI3_2, Q5TCQ9): below the threshold; pKd (MPDZ_12, O75970): below the threshold; pKd (MPP2, Q14168): below the threshold; pKd (PDZD7_3, Q9H5P4): below the threshold; pKd (PTPN3, P26045): 5.22; pKd (SHANK1, Q9Y566): below the threshold; pKd (TJP1_3, Q07157): below the threshold; pKd (TJP3_3, O95049): below the threshold | TASPAKETSF [SLC2A7, Q6PXP3] |
| below the threshold | below the threshold | below the threshold | below the threshold | 4.1 | below the threshold | below the threshold | below the threshold | below the threshold | below the threshold | below the threshold | below the threshold | below the threshold | below the threshold | below the threshold | 3.51 | below the threshold | below the threshold | below the threshold | below the threshold | pKd (MAGI3_2, Q5TCQ9): below the threshold; pKd (MPDZ_12, O75970): below the threshold; pKd (MPP2, Q14168): below the threshold; pKd (PDZD7_3, Q9H5P4): 3.76; pKd (PTPN3, P26045): 3.83; pKd (SHANK1, Q9Y566): below the threshold; pKd (TJP1_3, Q07157): below the threshold; pKd (TJP3_3, O95049): below the threshold | RKPKPSSSCC [RAB9A, P51151] |
| below the threshold | below the threshold | below the threshold | below the threshold | below the threshold | below the threshold | below the threshold | below the threshold | below the threshold | below the threshold | below the threshold | below the threshold | below the threshold | below the threshold | below the threshold | below the threshold | below the threshold | below the threshold | 3.89 | below the threshold | pKd (MAGI3_2, Q5TCQ9): below the threshold; pKd (MPDZ_12, O75970): below the threshold; pKd (MPP2, Q14168): below the threshold; pKd (PDZD7_3, Q9H5P4): 4.01; pKd (PTPN3, P26045): 3.87; pKd (SHANK1, Q9Y566): below the threshold; pKd (TJP1_3, Q07157): below the threshold; pKd (TJP3_3, O95049): below the threshold | YRLAQESGLV [ABCC6, O95255] |
